Common to all, as to assay: FACS, transfected 293T
Assay [1] deals with T1, muCDH19(44-139)::huCDH19(142-249)::muCDH19(248-770), Flag-tagged, on 293T cells (human/mouse chimera).
T1 construct: also called Hu EC2; C137913
T1 chain: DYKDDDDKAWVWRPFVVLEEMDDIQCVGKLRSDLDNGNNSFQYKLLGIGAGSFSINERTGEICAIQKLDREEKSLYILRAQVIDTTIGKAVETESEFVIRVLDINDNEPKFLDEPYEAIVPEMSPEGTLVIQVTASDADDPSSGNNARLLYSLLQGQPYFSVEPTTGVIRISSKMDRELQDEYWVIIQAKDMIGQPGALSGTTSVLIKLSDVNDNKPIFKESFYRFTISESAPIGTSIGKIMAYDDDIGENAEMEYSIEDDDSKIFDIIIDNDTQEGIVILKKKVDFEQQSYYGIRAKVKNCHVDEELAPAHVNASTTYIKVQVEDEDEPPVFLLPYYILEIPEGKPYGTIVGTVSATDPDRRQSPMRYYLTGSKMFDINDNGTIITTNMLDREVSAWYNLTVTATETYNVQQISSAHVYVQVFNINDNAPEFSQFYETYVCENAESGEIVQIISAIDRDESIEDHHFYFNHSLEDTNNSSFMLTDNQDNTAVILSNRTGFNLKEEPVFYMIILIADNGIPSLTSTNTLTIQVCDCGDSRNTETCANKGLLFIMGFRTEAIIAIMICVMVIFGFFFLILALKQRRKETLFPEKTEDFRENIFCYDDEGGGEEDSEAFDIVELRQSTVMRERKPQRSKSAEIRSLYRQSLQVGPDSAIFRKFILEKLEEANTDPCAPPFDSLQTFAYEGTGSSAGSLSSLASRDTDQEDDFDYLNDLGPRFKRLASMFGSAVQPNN
From the text: (§1) The experiment included assaying the anti-CDH19 antibodies against mouse Cadherin19 to determine suitability for binning on these human/mouse chimeras.

Assay [2] addresses T2, muCDH19(44-247)::huCDH19(250-364)::muCDH19(363-770), Flag-tagged, on 293T cells (human/mouse chimera).
T2 construct: also called Hu EC3; C137911
From the text: as §1

In assay [3] the target is T3, muCDH19(44-362)::huCDH19(365-772), Flag-tagged, on 293T cells (human/mouse chimera).
T3 construct: also called Hu EC4-5; C137917
T3 chain: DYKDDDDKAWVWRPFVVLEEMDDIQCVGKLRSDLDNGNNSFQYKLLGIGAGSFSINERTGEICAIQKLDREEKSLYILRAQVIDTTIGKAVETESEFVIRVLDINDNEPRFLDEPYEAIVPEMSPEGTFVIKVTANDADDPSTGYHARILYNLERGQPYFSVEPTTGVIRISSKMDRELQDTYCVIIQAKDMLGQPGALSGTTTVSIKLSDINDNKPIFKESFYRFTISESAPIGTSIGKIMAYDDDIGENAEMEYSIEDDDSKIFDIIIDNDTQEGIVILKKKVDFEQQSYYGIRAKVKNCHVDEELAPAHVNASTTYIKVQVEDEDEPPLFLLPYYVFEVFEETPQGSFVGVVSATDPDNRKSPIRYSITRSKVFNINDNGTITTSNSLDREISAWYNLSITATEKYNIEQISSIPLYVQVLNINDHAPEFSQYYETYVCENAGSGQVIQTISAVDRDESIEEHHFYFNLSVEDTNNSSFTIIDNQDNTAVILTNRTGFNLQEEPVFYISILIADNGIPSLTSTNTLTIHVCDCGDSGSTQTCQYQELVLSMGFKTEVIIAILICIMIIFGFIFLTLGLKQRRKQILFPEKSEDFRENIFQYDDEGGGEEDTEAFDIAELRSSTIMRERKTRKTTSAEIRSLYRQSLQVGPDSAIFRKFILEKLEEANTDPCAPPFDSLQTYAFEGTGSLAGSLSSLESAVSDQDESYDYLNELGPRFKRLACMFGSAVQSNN
From the text: as §1

Assay [4] deals with T4, muCDH19(44-461)::huCDH19(464-772), Flag-tagged, on 293T cells (human/mouse chimera).
T4 construct: also called Hu EC5; C137915
T4 chain: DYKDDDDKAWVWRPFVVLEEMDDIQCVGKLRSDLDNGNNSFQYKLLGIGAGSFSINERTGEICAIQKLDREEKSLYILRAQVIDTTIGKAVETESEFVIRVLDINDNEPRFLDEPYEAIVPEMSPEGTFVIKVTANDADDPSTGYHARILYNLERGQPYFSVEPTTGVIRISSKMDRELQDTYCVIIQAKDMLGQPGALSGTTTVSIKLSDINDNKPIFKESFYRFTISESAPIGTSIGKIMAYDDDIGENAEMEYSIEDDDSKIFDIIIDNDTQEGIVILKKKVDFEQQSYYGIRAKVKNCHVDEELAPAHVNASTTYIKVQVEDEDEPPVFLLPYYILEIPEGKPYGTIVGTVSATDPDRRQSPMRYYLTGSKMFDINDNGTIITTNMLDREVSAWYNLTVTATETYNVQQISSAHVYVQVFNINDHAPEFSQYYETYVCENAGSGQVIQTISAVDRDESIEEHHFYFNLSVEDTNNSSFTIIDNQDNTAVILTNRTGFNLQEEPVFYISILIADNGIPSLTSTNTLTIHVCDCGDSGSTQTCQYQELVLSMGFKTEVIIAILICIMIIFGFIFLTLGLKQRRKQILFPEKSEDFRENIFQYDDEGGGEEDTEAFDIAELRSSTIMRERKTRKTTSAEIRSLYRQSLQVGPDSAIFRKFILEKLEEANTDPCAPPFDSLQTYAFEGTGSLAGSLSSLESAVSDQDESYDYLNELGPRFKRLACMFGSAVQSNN
From the text: as §1

B1: anti-CDH19 antibody 2G6 (Ab ID 13588) (antibody, human IgG1, lambda, V domains shown)
VH: QVQLVESGGGVVQPGRSLRLSCAASGFTFSSYGMHWVRQAPGKGLEWVAFIWYDGSNKYYADSVKDRFTISRDNSKNTLYLQMKSLRAEDTAVYYCARRAGIIGTIGYYYGMDVWGQGTTVTVSS
VL: SYELTQPPSVSVSPGQTASITCSGDRLGEKYTCWYQQRPGQSPLLVIYQDTKRPSGIPERFSGSNSGNTATLTISGTQAMDEADYYCQAWDSSTVVFGGGTKLTVLG
Regarding B1, the binding result in assay [1], in assay [2], in assay [3] and in assay [4] was “binds” throughout.

B2: hu anti-<huCDH19> 4B10 VH::huIgG1z / 4B10 VL::huKLC (Ab ID 13590) (antibody, V domains shown)
VH: QVQLVESGGGVVQPGRSLRLSCAASGFTFSSYDMHWVRQAPGKGLEWVAVISYDGTNEYYADSVKGRFTISRDTSKNTLYLQMNSLRAEDTAVYYCARERYFDWSFDYWGQGTLVSVSS
VL: EIVLTQSPGTLSLSPGERATLSCRASQSVSNTYLAWYHQRPGQAPRLLIYGASSRATGIPDRFSGSGSGTDFALTISSLEPEDFAVYYCQQYSNSWTFGQGTKVEIKR
With B2, in assay [2], the binding result is reported as “binds”.

The record behind these values is patent US20140322218A1 (Amgen, published 2014).
